These results are taken from US20210388084A1 (JJP BIOLOGICS SP Z O O, published 2021).

For assay [1], the target named is T1, chimeric bovine EC1-Fcγ2R/human EC2-CD89 (bovine/human chimera).
T1 chain: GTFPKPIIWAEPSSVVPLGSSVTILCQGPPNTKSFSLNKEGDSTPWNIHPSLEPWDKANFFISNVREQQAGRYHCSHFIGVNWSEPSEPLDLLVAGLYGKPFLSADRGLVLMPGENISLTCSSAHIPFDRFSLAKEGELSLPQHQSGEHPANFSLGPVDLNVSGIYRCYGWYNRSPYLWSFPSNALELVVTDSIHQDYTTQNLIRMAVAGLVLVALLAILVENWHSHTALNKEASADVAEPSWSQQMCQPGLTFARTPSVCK
Briefly: FACS, transiently transfected HEK293F. Background: In flow cytometry, cells or beads pass a laser one at a time.
Experimental: After 48 hours and/or 72 hours, the binding of CD89/IgA blocking mouse anti-human CD89 antibodies to aforementioned chimeric human/bovine receptors on transfected cells was analyzed by FACS analysis. To this end, transient transfected HEK293F cells were put at 10×10⁶ cells/mL in ice-chilled phosphate-buffered saline containing 0.1% BSA (Sigma)/0.05% NaN₃ (PBS/BSA/NaN₃) supplemented with 50 μg/mL human IgGs (blocking Fcγ receptors; Sigma) for 10 minutes at 4° C. Then, 10 μL/tube (ie, 0.1×10⁶ cells) of these cells were incubated with or without 100 μL purified mouse anti-human CD89 antibody at 10 μg/mL (in PBS/BSA/NaN₃) for 30 minutes at 4° C. […] After extensive washing in PBS/BSA/NaN₃, cells were subsequently incubated with 1:200 diluted PE-conjugated goat anti-mouse IgG Fey-specific antibodies (Jackson ImmunoResearch) for 30 minutes at 4° C. After extensive washing in PBS/BSA/NaN₃, cells were fixed in 2% formaldehyde in PBS/BSA/NaN₃ for 30 minutes at 4° C.

In assay [2] the target is T2, membrane-bound full-length human CD89 (human, UniProt P24071 22-287).
T2 construct: on stably or transiently transfected HEK293F cells; also called FcalphaRI; huCD89
Put plainly: FACS, HEK293F-huCD89, half-maximum binding.
Experimental: Then, 10 μL/tube (ie, 0.1×10⁶ cells) of these cells were incubated with or without 100 μL titrated (in PBS/BSA/NaN₃) purified chimeric mouse/human anti-human CD89 antibody/tube for 30 minutes at 4° C. […] After extensive washing in PBS/BSA/NaN₃, cells were subsequently incubated with 1:200 diluted PE-conjugated goat anti-human IgG Fey-specific antibodies (Jackson ImmunoResearch) for 30 minutes at 4° C. After extensive washing in PBS/BSA/NaN₃, cells were fixed in 2% formaldehyde in PBS/BSA/NaN₃ for 30 minutes at 4° C.

The target in assay [3] is T3, recombinant C-terminal polyhistidine-tagged human (extracellular) CD89 (human, UniProt P24071 22-227).
T3 construct: extracellular domain; bought (Sino Biological); also called rhuCD89
Put plainly: ELISA, coated rhuCD89, half-maximum binding. On the technique in general: In an ELISA, binding on a coated surface is turned into a signal by an enzyme label.
Experimental: After extensive washing with PBS/0.05% Tween 20, plates were blocked with PBS/0.05% Tween 20/1% BSA (Roche) for 1 hour at RT. Subsequently, plates were incubated with 50 μL titrated (in block buffer) purified mouse anti-human CD89 antibody/well for 1 hour at RT. […] After extensive washing in PBS/0.05% Tween 20, binding of antibodies on rhuCD89 was determined with 1:5,000 diluted horseradish peroxidase (HRP)-conjugated goat anti-mouse IgG Fey-specific antibodies (Jackson ImmunoResearch) for 1 hour at RT, followed by a ready-to-use solution of TMB substrate (Invitrogen) for colorimetric detection.
After extensive washing with PBS/0.05% Tween 20, plates were blocked with PBS/0.05% Tween 20/1% BSA (Roche) for 1 hour at RT. Subsequently, plates were incubated with and without 50 μL titrated (in block buffer) purified chimeric mouse/human anti-human CD89 antibody/well for 1 hour at RT. After extensive washing in PBS/0.05% Tween 20, binding of antibodies on rhuCD89 was determined with 1:5,000 diluted horseradish peroxidase (HRP)-conjugated goat anti-human IgG Fey-specific antibodies (Jackson ImmunoResearch) for 1 hour at RT, followed by a ready-to-use solution of TMB substrate (Invitrogen) for colorimetric detection.

The target in assay [4] is T4, chimeric human/cynomolgus monkey CD89-II (human/cynomolgus monkey chimera, UniProt P24071 22-287).
T4 construct: also called ΔIle47-Ile71 human EC1-CD89; II (47-71)
T4 chain: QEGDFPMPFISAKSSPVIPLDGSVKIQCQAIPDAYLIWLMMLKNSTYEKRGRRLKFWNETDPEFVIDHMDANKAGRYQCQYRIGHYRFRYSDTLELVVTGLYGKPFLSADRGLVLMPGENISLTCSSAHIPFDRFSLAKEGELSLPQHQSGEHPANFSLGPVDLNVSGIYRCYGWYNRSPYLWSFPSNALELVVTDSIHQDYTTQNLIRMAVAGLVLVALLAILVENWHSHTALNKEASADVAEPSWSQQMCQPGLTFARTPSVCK
Briefly: FACS, transiently transfected HEK293F; - = no binding.
Experimental: (§1) After 48 hours, the binding of CD89/IgA blocking mouse anti-human CD89 antibodies to aforementioned chimeric human CD89/cynomolgus monkey CD89 constructs on transfected cells was analyzed by FACS analysis. To this end, transient transfected HEK293F cells were put at 10×10⁶ cells/mL in ice-chilled phosphate-buffered saline containing 0.1% BSA (Sigma)/0.05% NaN₃ (PBS/BSA/NaN₃) supplemented with 50 μg/mL human IgGs (blocking Fcγ receptors; Sigma) for 10 minutes at 4° C. Then, 10 μL/tube (ie, 0.1×10⁶ cells) of these cells were incubated with or without 100 μL purified mouse anti-human CD89 antibody at 10 μg/mL (in PBS/BSA/NaN₃) for 30 minutes at 4° C. […] After extensive washing in PBS/BSA/NaN₃, cells were subsequently incubated with 1:200 diluted PE-conjugated goat anti-mouse IgG Fey-specific antibodies (Jackson ImmunoResearch) for 30 minutes at 4° C. After extensive washing in PBS/BSA/NaN₃, cells were fixed in 2% formaldehyde in PBS/BSA/NaN₃ for 30 minutes at 4° C.

The target of assay [5] is T2, membrane-bound full-length human CD89. Put plainly: FACS, HEK293F-huCD89, unlabeled Ab 10 ug/mL first; competitor A3-PE.
Experimental: (§2) Then, 10 μL/tube (ie, 0.1×10⁶ cells) of these cells were incubated with or without 100 μL purified mouse anti-human CD89 antibody at 10 μg/mL (in PBS/BSA/NaN₃) for 30 minutes at 4° C. […] After extensive washing in PBS/BSA/NaN₃, cells were fixed in 2% formaldehyde in PBS/BSA/NaN₃ for 30 minutes at 4° C.
Assay [6] has the same target. Briefly: FACS, HEK293F-huCD89, unlabeled Ab 10 ug/mL first; competitor A59-PE.
Experimental: as §2
Assay [7] shares this target. Put plainly: FACS, HEK293F-huCD89, unlabeled Ab 10 ug/mL first; competitor MIP8a-PE.
Experimental: as §2
Assay [8] deals with T5, chimeric human/cynomolgus monkey CD89-I (human/cynomolgus monkey chimera, UniProt P24071 22-287).
T5 construct: also called ΔGln22-Lys46 human EC1-CD89; I (22-46)
T5 chain: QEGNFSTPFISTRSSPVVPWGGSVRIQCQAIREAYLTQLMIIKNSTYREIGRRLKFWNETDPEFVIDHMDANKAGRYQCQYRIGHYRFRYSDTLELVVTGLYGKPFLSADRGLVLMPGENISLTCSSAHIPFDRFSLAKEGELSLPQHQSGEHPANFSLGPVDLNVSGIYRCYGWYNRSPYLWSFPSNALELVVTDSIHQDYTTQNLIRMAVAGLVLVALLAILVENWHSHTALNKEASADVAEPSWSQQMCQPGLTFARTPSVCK
Briefly: FACS, transiently transfected HEK293F, 10 ug/mL; ++ strong, + intermediate, -/+ weak.
Experimental: as §1

Assay [9] deals with T6, chimeric human/cynomolgus monkey CD89-III (human/cynomolgus monkey chimera, UniProt P24071 22-287).
T6 construct: also called ΔGly72-Gly96 human EC1-CD89; III (72-96)
T6 chain: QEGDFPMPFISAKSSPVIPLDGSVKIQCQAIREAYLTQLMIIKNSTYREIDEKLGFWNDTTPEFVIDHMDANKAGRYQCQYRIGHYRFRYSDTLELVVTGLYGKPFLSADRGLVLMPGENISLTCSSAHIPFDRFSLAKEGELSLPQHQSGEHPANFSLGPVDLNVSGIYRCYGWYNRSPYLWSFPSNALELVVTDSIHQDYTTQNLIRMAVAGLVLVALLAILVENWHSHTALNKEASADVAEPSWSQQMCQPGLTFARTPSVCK
Described as above.
Experimental: as §1

For assay [10], the target named is T7, chimeric human/cynomolgus monkey CD89-IV (human/cynomolgus monkey chimera, UniProt P24071 22-287).
T7 construct: also called ΔArg97-Gly121 human EC1-CD89
T7 chain: T6 chain with D51G, E52R, K53R, G55K, D59E, T61D, Q78R, Q80R, H85L, Y86S
The assay is described as above.
Experimental: as §1

The target of assay [11] is T8, chimeric human/cynomolgus monkey CD89-hotspots (human/cynomolgus monkey chimera, UniProt P24071 22-287).
T8 construct: also called ΔThr58, Gln59; ΔArg73, Arg74, Lys76
T8 chain: T6 chain with T37I, Q38W, D51G, D59E, T61D, H85L, Y86S
The description is as above.
Experimental: as §1

The target of assay [12] is T2, membrane-bound full-length human CD89. Put plainly: FACS, HEK293F-huCD89, 4C +NaN3, IgA then Ab 10 ug/mL; pre-bound non-aggr serum IgA.
Experimental: After this (ie, without washing), 50 μL purified mouse anti-human CD89 antibody at 20 μg/mL (in PBS/BSA/NaN₃) was added to these cells, and incubated for another 30 minutes at 4° C. […] After extensive washing in PBS/BSA/NaN₃, 1:200 diluted PE-conjugated streptavidin (Jackson ImmunoResearch) was added, and incubated for 30 minutes at 4° C. After extensive washing in PBS/BSA/NaN₃, cells were fixed in 2% formaldehyde in PBS/BSA/NaN₃ for 30 minutes at 4° C.
For assay [13] the target is unchanged. Briefly: FACS, HEK293F-huCD89, 4C +NaN3, Ab 10 ug/mL then IgA; competitor non-aggr serum IgA.
Experimental: Then, 10 μL/tube (ie, 0.1×10⁶ cells) of these cells were incubated with or without 50 μL purified mouse anti-human CD89 antibody at 20 μg/mL (in PBS/BSA/NaN₃) for 30 minutes at 4° C. […] After extensive washing in PBS/BSA/NaN₃, 1:200 diluted PE-conjugated streptavidin (Jackson ImmunoResearch) was added, and incubated for 30 minutes at 4° C. After extensive washing in PBS/BSA/NaN₃, cells were fixed in 2% formaldehyde in PBS/BSA/NaN₃ for 30 minutes at 4° C.
Assay [14] shares this target. Briefly: FACS, HEK293F-huCD89, 4C +NaN3, Ab 10 ug/mL then IgA; competitor heat-aggr serum IgA.
Experimental: To mimic human IgA immune complexes, human (serum-derived) IgA (Bethyl Laboratories) was heated at 63° C. for 30 minutes, and cooled down to RT followed by centrifugation at 4° C. 12000×g for 2 minutes to remove any insoluble protein precipitation.
Then, 10 μL/tube (ie, 0.1×10⁶ cells) of these cells were incubated with or without 50 μL purified mouse anti-human CD89 antibody at 20 μg/mL (in PBS/BSA/NaN₃) for 30 minutes at 4° C.
For assay [15] the target is unchanged. Briefly: FACS, HEK293F-huCD89, 24 h 37C no NaN3, IgA then Ab 10 ug/mL; pre-bound non-aggr serum IgA.
Experimental: (§3) After extensive washing in PBS/BSA/NaN₃, 1:200 diluted PE-conjugated streptavidin (Jackson ImmunoResearch) was added, and incubated for 30 minutes at 4° C. After extensive washing in PBS/BSA/NaN₃, cells were fixed in 2% formaldehyde in PBS/BSA/NaN₃ for 30 minutes at 4° C.
Assay [16] shares this target. Briefly: FACS, HEK293F-huCD89, 24 h 37C no NaN3, Ab 10 ug/mL then IgA; competitor non-aggr serum IgA.
Experimental: as §3
Assay [17] shares this target. Briefly: FACS, HEK293F-huCD89, 24 h 37C no NaN3, IgA then Ab 10 ug/mL; pre-bound heat-aggr serum IgA.
Experimental: as §3
For assay [18] the target is unchanged. Briefly: FACS, HEK293F-huCD89, 24 h 37C no NaN3, Ab 10 ug/mL then IgA; competitor heat-aggr serum IgA.
Experimental: as §3
For assay [19], the target named is T8, chimeric human/cynomolgus monkey …. Put plainly: FACS, transiently transfected HEK293F; - = no binding.
Experimental: as §1
For assay [20], the target named is T4, chimeric human/cynomolgus monkey CD89-II. Briefly: FACS, transiently transfected HEK293F, 10 ug/mL; ++ strong, + intermediate, -/+ weak.
Experimental: as §1
Assay [21] concerns the target T2, membrane-bound full-length human CD89. Put plainly: FACS, HEK293F-huCD89, 4C +NaN3, IgA then Ab 10 ug/mL; pre-bound heat-aggr serum IgA.
Experimental: as §3

Numbering of substitutions follows the chain as printed. Some results are limits rather than exact numbers.

B1: mouse anti-human CD89-specific antibody 30C7 (antibody, mouse IgG1, V domains shown)
VH: QVQLQQSGPELVRPGVSVKISCKGSGYTFTDYVMHWVKQSHAKSLEWIGVISTYSGNTNYNQKFKGKATMTVDKSSSTAYMELARLTSEDSAIYYCARESDGYYFDYWGQGTTLTVSS
VL: DIVMSQSPSSLAVSAGEKVTMSCKSSQSLLNSRTRKNYLAWYQQKPGQSPKLLIYWASTRESGVPDRFTGSGSGTDFTLTISSVQAEDLAVYYCKQSYNLMYTFGGGTKLEIK
On to B1, for which the binding result in [1] was “no binding (tested: 10 µg/mL)”; in assay [4] it was “no binding (tested: 10 µg/mL)”; in assay [8] it was “binds”; in assay [9], “binds”; in assay [10], “binds”; in assay [11] it was “binds”. In addition, the results for the EC50 in assay [2] and in assay [3] were 0.484 mg/L and 0.029 mg/L, respectively. In addition, in assay [5], the “% blocking of A3-PE binding” value is less than 25%. Further, the “% blocking of A59-PE binding” value in assay [6] was less than 25%. Also, the “% blocking of MIP8a-PE binding” value in [7] was greater than 90%. The “percent IgA binding” value in assay [12] is 26 to 50%; in assay [13], 0 to 25%; in assay [14], 0 to 25%. Moreover, the “percent IgA binding (remaining)” value in assay [15], in assay [16], in assay [17] and in assay [18] was 0 to 25% each time.

B2: mouse anti-human CD89-specific antibody 16D6 (antibody, mouse IgG1, V domains shown)
VH: QVQLQQSGAELMKPGASVKISCKATGYTFSTYWIEWVKQRPGHGLEWIGEILPGSGSANYNEKFKGKATFTADTSSNTAYMQLSSLTFEDSAVYYCAKGFGSPYYYAMDYWGQGTSVTVSS
VL: EIVLTQSPALMAASPGEKVTITCSVSSSISSSNLHWYQQKSETSPKPWIYGTSKLASGVPVRFSGSGSGTSYSLTISNMEAEDAATYYCQQWSSFPLTFGGGTKLEIK
notes: also called 16D16
With B2, the binding result is recorded as “no binding (tested: 10 µg/mL)” in [1]; “no binding (tested: 10 µg/mL)” in [19]; “binds” in assay [8]; “binds” in assay [20]; “binds” in assay [9]; “binds” in assay [10]. The EC50 amounted to 1.62 mg/L in assay [2] and 0.119 mg/L in [3]. Also, the “% blocking of A3-PE binding” value in [5] was less than 25%. Moreover, the “% blocking of A59-PE binding” value in assay [6] was less than 25%. In addition, the “% blocking of MIP8a-PE binding” value in assay [7] is less than 25%. Further, the “percent IgA binding” value in assay [13] is 0 to 25%; in assay [21], 76 to 125%; in assay [14], 0 to 25%. In addition, the “percent IgA binding (remaining)” value in assay [17] and in assay [18] was 76 to 125% in each case.

For orientation: EC50 means the concentration needed to bring the measured effect to its halfway point.
